Results taken from patent publication US20220031650A1 (PDS BIOTECHNOLOGY, published 2022).

T1: H-2K^b molecules on RMA-S cells (mouse, UniProt P01901 22-369; P01887 21-119)
T1 construct: whole, on cells
T1 sequence (MHC heavy): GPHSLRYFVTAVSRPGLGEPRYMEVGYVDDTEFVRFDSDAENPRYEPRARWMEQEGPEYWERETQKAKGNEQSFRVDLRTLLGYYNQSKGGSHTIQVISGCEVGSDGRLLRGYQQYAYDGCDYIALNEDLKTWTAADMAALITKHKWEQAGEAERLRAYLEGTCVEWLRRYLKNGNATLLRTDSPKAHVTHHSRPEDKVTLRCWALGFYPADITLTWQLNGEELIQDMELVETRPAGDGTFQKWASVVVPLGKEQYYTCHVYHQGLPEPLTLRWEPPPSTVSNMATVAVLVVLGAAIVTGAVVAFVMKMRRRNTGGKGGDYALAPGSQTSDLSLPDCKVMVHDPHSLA
T1 sequence: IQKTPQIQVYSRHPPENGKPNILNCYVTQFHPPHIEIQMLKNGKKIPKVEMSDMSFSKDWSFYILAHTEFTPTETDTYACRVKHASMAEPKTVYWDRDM

T2: H-2D^b molecules on RMA-S cells (mouse, UniProt P01899 25-362; P01887 21-119)
T2 construct: whole, on cells; also called MHC class I
T2 sequence (MHC heavy, looked up): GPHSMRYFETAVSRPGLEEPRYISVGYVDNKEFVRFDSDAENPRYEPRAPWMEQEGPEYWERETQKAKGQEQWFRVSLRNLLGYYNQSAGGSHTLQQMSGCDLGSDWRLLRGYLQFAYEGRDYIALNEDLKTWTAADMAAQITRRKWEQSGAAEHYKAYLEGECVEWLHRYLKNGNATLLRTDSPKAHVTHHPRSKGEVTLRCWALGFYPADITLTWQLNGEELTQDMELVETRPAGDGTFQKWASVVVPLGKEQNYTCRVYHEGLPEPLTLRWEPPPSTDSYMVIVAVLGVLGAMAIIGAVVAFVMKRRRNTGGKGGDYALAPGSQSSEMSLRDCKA
T2 sequence (looked up): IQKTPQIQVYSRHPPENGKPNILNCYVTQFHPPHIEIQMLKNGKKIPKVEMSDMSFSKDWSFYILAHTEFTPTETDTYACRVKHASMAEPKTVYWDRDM


Experiments:
[1] = target: T1, H-2K^b molecules on RMA-S cells; experiment: RMA-S MHC class I stabilisation assay, flow cytometry with anti-H-2K^b antibody
[2] = target: T2, H-2D^b molecules on RMA-S cells; experiment: RMA-S MHC class I stabilisation assay, 10 µM peptide, flow cytometry with anti-H-2D^b antibody, medium control
Experimental: We evaluated the MHC class I binding affinity of native and KSS-elongated E7 peptides. RMA-S cells, a mouse lymphoma cell line at a concentration of 5×10⁵ cells/ml were incubated overnight at 27° C. with native E7 or KSS-E7 peptide (10 μM). Cells incubated with medium were used as a control. Cells were then incubated for 2 h at 37° C. After washes, cells were stained with fluorescently conjugated monoclonal antibodies against H-2D^b or H-2K^b molecules on the cell surface prior to flow cytometry analysis.

| Binder | binding result [1] | fold increase in the mean fluorescence (H-2D^b on RMA-S cells) [2] [fold] | fold up-regulation of H-2D^b molecules on RMA-S cells compared to the control [2] [fold] |
| --- | --- | --- | --- |
| KSSRAHYNIVTF (Not lipidated; added at 10 uM to RMA-S cells; also called KSS-elongated E7 peptide) [KSS-E7 peptide (KSS (lysine-serine-serine)-elongated E7 peptide without the lipid chain)] | no binding (tested: 10 µM) | 8 | – |
| RAHYNIVTF (Synthetic free peptide, added at 10 uM to RMA-S cells; also called E7 antigen) [native E7 peptide (HPV 16 E7 protein, amino acid 49-57, H-2D^b restricted CTL epitope)] | no binding (tested: 10 µM) | – | 4 |
